Target: T1, PRDM14 DNA binding domain (C-terminal 179 aa) (Homo sapiens, UniProt Q9GZV8 SEQ:393-571)
T1 sequence: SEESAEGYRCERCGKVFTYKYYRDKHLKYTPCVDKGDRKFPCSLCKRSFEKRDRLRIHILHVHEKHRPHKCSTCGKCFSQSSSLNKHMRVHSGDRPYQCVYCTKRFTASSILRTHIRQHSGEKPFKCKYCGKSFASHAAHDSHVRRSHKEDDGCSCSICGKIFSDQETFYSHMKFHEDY
Assay: EMSA; 100 ng protein, 1 ng probe, poly(dI-dC), 10 mM ZnCl2, 60 mM KCl, pH 7.9, room temperature
Conditions: tags: His tag, pET42b, E. coli BL21; label: 5' biotin on sense strand
Protocol: Recombinant PRDM14 DNA binding domain (His tagged) was used in the gel shift assays. Briefly, a cDNA encoding 179 amino acids of the C terminus of PRDM14 was cloned into the pET42b (Novagen) vector using cloning sites NdeI and XhoI. The fusion construct was transformed into BL21 competent cells (Strategene) according to the supplier's instructions. Purified proteins were dialyzed against a dialysis buffer (10 mM Tris-HCl, pH 7.4, 100 mM NaCl, 10 mM ZnCl₂ and 10% glycerol) at 4° C. for 6 hr. Oligonucleotides (Proligo) labeled with biotin at the 5′ end of the sense strands were annealed with the antisense strands in the annealing buffer (10 mM Tris-HCl, pH8.0, 50 mM NaCl, 1 mM EDTA) and purified with agarose gel DNA extraction kit (Qiagen). DNA concentrations were determined by the NanoDrop ND-1000 spectrophotometer. The gel shift assays were performed using a LightShift Chemiluminescent EMSA kit (Pierce Biotechnologies). 100 ng of protein was added to a 5 μl reaction mixture (final) containing 1 μg of poly(dI-dC) (Amersham), 1 ng of biotin-labeled oligonucleotide in the binding buffer (12 mM HEPES, pH7.9, 10% glycerol, 60 mM KCl, 0.25 mM EDTA, 1 mM DTT, 10 mM ZnCl₂). Binding reaction mixtures were incubated for 20 min at room temperature. […] Gels were transferred to Biodyne B nylon membranes (Pierce Biotechnologies) using western blot techniques and detected using chemiluminescence.

B1: CR2 probe (dsDNA)
DNA 1: CAGCTCTAACCCTAAACAAGTGCTCAACCCTTGAATGGGCCTGGATGGCT
DNA 2: AGCCATCCAGGCCCATTCAAGGGTTGAGCACTTGTTTAGGGTTAGAGCTG
binding result: binds
